Substitutions are numbered along the chain they refer to.

Data on 9 molecules can be found in patent publication US20090297524A1 (DOMANTIS, published 2009).

Test [1] concerns the target T1, Recombinant human CD40L (human, UniProt P29965 108-261, limits assumed).
T1 construct: also called CD40 ligand
T1 sequence (looked up): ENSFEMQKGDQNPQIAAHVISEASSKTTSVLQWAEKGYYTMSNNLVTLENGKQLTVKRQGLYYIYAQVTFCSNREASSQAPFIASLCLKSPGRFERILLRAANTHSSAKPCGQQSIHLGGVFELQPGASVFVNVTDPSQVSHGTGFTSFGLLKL
The test can be described thus: CD40L receptor binding assay (RBA, ELISA): dAb titrated against 3 ng/ml CD40L binding to plate-coated CD40/Fc. In general terms: An ELISA detects its analyte on a solid surface through an enzyme-linked reagent.
Protocol: (§1) A 96 well Nunc Maxisorp assay plate was coated overnight at 4° C. with 100 μl per well of recombinant human CD40/Fc (R&D Systems) at 0.5 μg/ml in carbonate buffer. The plate was washed 3 times with 300 μl of 0.05% Tween/PBS and 3 times with 300 μl of PBS using a Tecan plate washer. The wells were blocked using 200 μl of PBS containing 2% (w/v) BSA and incubated for a minimum of 1 h at room temperature. The wells were washed as above, then 50 μl of purified dAb protein was added to each well. […] The plate was washed as described above, then 100 μl HRP conjugated anti-biotin antibody (1:5000 dilution in diluent) added to each well and the plate incubated for 1 hr at room temperature. The plate was washed again as described above using a Tecan plate washer and the assay developed using 100 μl of SureBlue 1-Component TMB MicroWell Peroxidase solution (the plate was left at room temperature for up to 20 min). The reaction was stopped by the addition of 100 μl M hydrochloric acid. The OD₄₅₀ₙₘ of the plate was assayed within 30 minutes of acid addition. The OD₄₅₀ₙₘ is proportional to the amount of bound streptavidin-HRP conjugate, therefore the greater the degree of dAb inhibition the lower the OD₄₅₀ₙₘ of the resulting signal.

The target of test [2] is T1, Recombinant human CD40L. The test can be described thus: CD40L receptor binding assay: inhibition of CD40L (3 ng/ml) binding to coated CD40/Fc; 30K PEG.
Protocol: as §1
Test [3] addresses T1, Recombinant human CD40L. The test can be described thus: CD40L receptor binding assay: inhibition of CD40L (3 ng/ml) binding to coated CD40/Fc; 40K PEG.
Protocol: as §1
Test [4] deals with T1, Recombinant human CD40L. Briefly: CD40L receptor binding assay: dAb inhibits CD40L (3 ng/ml) binding to coated CD40/Fc.
Protocol: A 96 well Nunc Maxisorp assay plate was coated overnight at 4° C. with 100 μl per well of recombinant human CD40/Fc (R&D Systems) at 0.5 μg/ml in carbonate buffer. The plate was washed 3 times with 300 μl of 0.05% Tween/PBS and 3 times with 300 μl of PBS using a Tecan plate washer. The wells were blocked using 200 μl of PBS containing 2% (w/v) BSA and incubated for a minimum of 1 h at room temperature. The wells were washed as above, then 50 μl of purified dAb protein (or unpurified supernatant containing dAb from a micro-culture expression) was added to each well.
The plate was washed as described above, then 100 μl HRP conjugated anti-biotin antibody (1:5000 dilution in diluent) added to each well and the plate incubated for 1 hr at room temperature. The plate was washed again as described above using a Tecan plate washer and the assay developed using 100 μl of SureBlue 1-Component TMB MicroWell Peroxidase solution (the plate was left at room temperature for up to 20 min). The reaction was stopped by the addition of 100 μl M hydrochloric acid. The OD₄₅₀ₙₘ of the plate was assayed within 30 minutes of acid addition. The OD₄₅₀ₙₘ is proportional to the amount of bound streptavidin-HRP conjugate, therefore the greater the degree of dAb inhibition the lower the OD₄₅₀ₙₘ of the resulting signal.

B1: DOM8-24cys (other)
VH: ASTEVQLLESGGGLVQPGGSLRLSCAASGFTFSNYQMAWVRQAPGKGLEWVSSITSEGGSTYYADSVKGRFTISRDNSKNTLYLQMNSLRAEDTAVYYCAKPGKNFDYWGQGTLVTVSC
notes: VH dAb DOM8-24 with an engineered C-terminal cysteine (last Ser replaced by Cys); also called unmodified protein
In the case of B1, in the test with Recombinant human CD40L [1], the “IC50 (read off the curve)” value was about 0.6 nM.

B2: 30K PEG-MAL PEGylated DOM8-24cys (other)
VH: B1 VH
modifications: 30K PEG-MAL on the engineered C-terminal cysteine
notes: PEGylated monomer; also called 30K PEG DOM8-24cys
In general, IC50 refers to the concentration at which inhibition is half-maximal. As to B2, the “IC50 (read off the curve)” value with Recombinant human CD40L [1] is about 0.5 nM. Also, the IC50 with Recombinant human CD40L [2] is about 1 nM.

B3: 40K PEG2-MAL PEGylated DOM8-24cys (other)
VH: B1 VH
modifications: 40K PEG2-MAL on the engineered C-terminal cysteine
notes: PEGylated monomer; also called 40K PEG DOM8-24cys
Take B3: the “IC50 (read off the curve)” value with Recombinant human CD40L [1] was about 1 nM. Besides, in the test with Recombinant human CD40L [3], the IC50 was about 1 nM.

B4: DOM-77 (other)
VH: EVQLLESGGGLVQPGGSLRLSCAASGFTFEEYGMAWVRQAPGKGLEWVSTISPLGISTYYADSVKGRFTISRDNSKNTLYLQMNSLRAEDTAVYYCAKHATSQESLRSFDYWGQGTLVTVSS
notes: VH dAb
On to B4, for which the IC50 in the test with Recombinant human CD40L [4] was 40 nM.

B5: DOM-20 (other)
VH: EVQLLESGGGLVQPGGSLRLSCAASGFTFSGYQMAWVRQAPGKGLEWVSGISSEGLTTYYADSVKGRFTISRDNSKNTLYLQMNSLRAEDTAVYYCAKLGRRFDYWGQGTLVTVSS
notes: VH dAb
Take B5: the IC50 with Recombinant human CD40L [4] worked out at 8 nM.

B6: DOM-24 (other)
VH: B5 VH with G31N, G50S, S52T, L56G, T57S, L99P, R101K, R102N
notes: VH dAb; also called DOM8-24; monomeric DOM-24
With B6, the IC50 in the test with Recombinant human CD40L [4] was determined as 0.417 nM.

B7: DOM-27 (other)
VH: EVQLLESGGGLVQPGGSLRLSCAASGFTFNLYEMTWVRQAPGKGLEWVSSITSDGVSTYYADSVKGRFTISRDNSKNTLYLQMNSLRAEDTAVYYCAKPDSPFDYWGQGTLVTVSS
notes: VH dAb
On to B7, for which the IC50 with Recombinant human CD40L [4] was about 100 nM.

B8: DOM-30 (other)
VH: B5 VH with S30A, G31R, G50T, S53D, E54D, L56D, T57S, G100D, R101K, R102L
notes: VH dAb
As for B8, the IC50 with Recombinant human CD40L [4] was found to be 8 nM.

B9: DOM-31 (other)
VH: B7 VH with N30E, L31E, E33Q, T35A, S50T, T52S, S53D, V56S, S101L, P102Y
notes: VH dAb
For the molecule B9, the half-inhibitory concentration (IC50) in the test with Recombinant human CD40L [4] was determined as 8 nM.
